The values that follow come from article PMC7550718.

Some targets named below: SHP1 R136Q (human) (UniProt P29350); SHP1 R30Q (human) (UniProt P29350); SHP1 R30Q R136Q (human) (UniProt P29350).
Experiment [1] addresses Full length wild type SHP1 (human) (UniProt P29350).

On to “SIRPα di-phosphopeptide corresponding to residues 427 to 460 of human SIRPα (H2N-ITpYADLNLP-PEG8-HTEpYASIQTSK-NH2)”, for which the increase of phosphatase activity on DiFMUP with 0 to 3,000 nM SIRPα peptide (fold at 3 μM) with SHP1 R136Q (human) amounted to 3.5 fold; with SHP1 R30Q (human) it was 1.8 fold; in the experiment with SHP1 R30Q R136Q (human), 1.1 fold. Moreover, in experiment [1], the increase of SHP1 phosphatase activity on DiFMUP with 0 to 3,000 nM SIRPα peptide (fold) amounted to 35 fold.
